# Source: patent US10428140B2, “Anti-EphA4 antibody” (EISAI R&D MANAGEMENT CO., LTD., priority 2015, dated 2019)
# Positions count from the first letter of the chain named. Where “and” joins values, the source holds several entries; their conditions need not be identical. Identical values can stand only once.
# B1: 139 (antibody)
# VH: QVQLVQSGSELKKPGASVKVSCKASGYTFTDYSMHWVRQAPGQGLEWMGWINTETGEPTYAQGFTGRFVFSLDTSVSTAYLQISSLKAEDTAVYYCARIPLYYYGSRYWYFDVWGQGTTVTVSS
# VL: DIQMTQSPSSLSASVGDRVTITCRASENIYRNLAWYQQKPGKAPKLLVYAATNLADGVPSRFSGSGSGTDYTLTISSLQPEDFATYYCQHFWGTPWTFGQGTKVEIK
# chain: ASTKGPSVFPLAPSSRSTSESTAALGCLVKDYFPEPVTVSWNSGALTSGVHTFPAVLQSSGLYSLSSVVTVPSSNFGTQTYTCNVDHKPSNTKVDKTVERKSCVECPPCPAPPAAAPSVFLFPPKPKDTLMISRTPEVTCVVVDVSHEDPEVQFNWYVDGVEVHNAKTKPREEQFNSTFRVVSVLTVVHQDWLNGKEYKCKVSNKGLPAPIEKTISKTKGQPREPQVYTLPPSREEMTKNQVSLTCLVKGFYPSDIAVEWESNGQPENNYKTTPPMLDSDGSFFLYSKLTVDKSRWQQGNVFSCSVMHEALHNHYTQKSLSLSPG
# modifications: synthetic humanized antibody heavy chain variable region sequence; synthetic humanized antibody light chain variable region sequence; synthetic antibody constant region sequence
# B2: 154 (antibody, V domains shown)
# VH: B1 VH with Q62D, G63D, T65K
# VL: B1 VL with V48L, P80S
# modifications: synthetic humanized antibody heavy chain variable region sequence; synthetic humanized antibody light chain variable region sequence
# B3: 140 (antibody, V domains shown)
# VH: B1 VH with E46K
# VL: B1 VL
# modifications: synthetic humanized antibody heavy chain variable region sequence; synthetic humanized antibody light chain variable region sequence
# B4: 145 (antibody, V domains shown)
# VH: B1 VH with E46K, Q62D, G63D, T65K
# VL: B1 VL with V48L, P80S
# modifications: synthetic humanized antibody heavy chain variable region sequence; synthetic humanized antibody light chain variable region sequence
# B5: 153 (antibody, V domains shown)
# VH: B1 VH with E46K
# VL: B1 VL with V48L, P80S
# modifications: synthetic humanized antibody heavy chain variable region sequence; synthetic humanized antibody light chain variable region sequence
# B6: 138 (antibody, V domains shown)
# VH: B1 VH with V2I, E46K
# VL: B1 VL
# modifications: synthetic humanized antibody heavy chain variable region sequence; synthetic humanized antibody light chain variable region sequence
# B7: 155 (antibody, V domains shown)
# VH: B1 VH with V2I, E46K, Q62D, G63D, T65K
# VL: B1 VL with V48L, P80S
# modifications: synthetic humanized antibody heavy chain variable region sequence; synthetic humanized antibody light chain variable region sequence
# B8: 152 (antibody, V domains shown)
# VH: B1 VH
# VL: B1 VL with V48L, P80S
# modifications: synthetic humanized antibody heavy chain variable region sequence; synthetic humanized antibody light chain variable region sequence
# B9: 142 (antibody, V domains shown)
# VH: B1 VH with E46K, Q62D, G63D, T65K
# VL: B1 VL
# modifications: synthetic humanized antibody heavy chain variable region sequence; synthetic humanized antibody light chain variable region sequence
# B10: 141 (antibody, V domains shown)
# VH: B1 VH with Q62D, G63D, T65K
# VL: B1 VL
# modifications: synthetic humanized antibody heavy chain variable region sequence; synthetic humanized antibody light chain variable region sequence
# B11: 151 (antibody, V domains shown)
# VH: B1 VH with V2I, E46K
# VL: B1 VL with V48L, P80S
# modifications: synthetic humanized antibody heavy chain variable region sequence; synthetic humanized antibody light chain variable region sequence
# B12: 143 (antibody, V domains shown)
# VH: B1 VH with V2I, E46K, Q62D, G63D, T65K
# VL: B1 VL
# modifications: synthetic humanized antibody heavy chain variable region sequence; synthetic humanized antibody light chain variable region sequence
# B13: 157 (antibody, V domains shown)
# VH: B1 VH
# VL: B1 VL with K45Q, V48L
# modifications: synthetic humanized antibody heavy chain variable region sequence; synthetic humanized antibody light chain variable region sequence
# Molecular target: T1, human EphA4 (binding to human Ephrin A5) (Homo sapiens, UniProt P54764)
# T1 construct: made in house; not restated for the human SEAP-His protein
# Experiment: Human EphA4-human ligand binding inhibition ELISA of humanized antibodies (biotinylated Ephrin A5-Fc)
# Details: biotinylated human Ephrin A5-Fc 0.7 nM
# Method: Each anti-EphA4 monoclonal humanized antibody obtained in Example 16 was evaluated for its inhibitory activity against the binding between human EphA4 and its human ligand according to the following steps. Each well of a 96-well plate (Nunc) was coated with an anti-alkaline phosphatase antibody (Thermo Fisher Scientific). After incubation overnight at 4° C., each well was blocked with 1% BlockAce (DS Pharma Biomedical) at room temperature for 1 hour. After washing with 0.05% Tween 20/PBS (Thermo Fisher Scientific) three times, the human EphA4 extracellular region-SEAP-His protein obtained by the method of Example 2 was added (final concentration: 10 nM) to each well and incubated at room temperature for 1 hour. After washing three times, a ligand and each serially diluted humanized antibody of antibody A (0, 0.003, 0.01, 0.03, 0.1, 0.3, 1, 3, 10, 30, 100, 300, 1000, and 3000 nM) were added to each well. The ligand used was biotinylated human Ephrin A5-Fc chimera (R&D Systems, final concentration: 0.7 nM). After incubation at room temperature for 1 hour and subsequent washing three times, horseradish peroxidase-labeled streptavidin (GE Healthcare) was added thereto and incubated at room temperature for 1 hour. After washing three times, a TMBZ (3,3′,5,5′-tetramethylbenzidine, Sigma-Aldrich) solution was added to each well and incubated at room temperature for 2 minutes. An equal amount of a reaction stopping solution (1N H2SO4, Wako Pure Chemical Industries) was added to each well. The absorbance at 450 nm was read using a microplate reader (PerkinElmer).
# T1 sequence (P54764 20-547): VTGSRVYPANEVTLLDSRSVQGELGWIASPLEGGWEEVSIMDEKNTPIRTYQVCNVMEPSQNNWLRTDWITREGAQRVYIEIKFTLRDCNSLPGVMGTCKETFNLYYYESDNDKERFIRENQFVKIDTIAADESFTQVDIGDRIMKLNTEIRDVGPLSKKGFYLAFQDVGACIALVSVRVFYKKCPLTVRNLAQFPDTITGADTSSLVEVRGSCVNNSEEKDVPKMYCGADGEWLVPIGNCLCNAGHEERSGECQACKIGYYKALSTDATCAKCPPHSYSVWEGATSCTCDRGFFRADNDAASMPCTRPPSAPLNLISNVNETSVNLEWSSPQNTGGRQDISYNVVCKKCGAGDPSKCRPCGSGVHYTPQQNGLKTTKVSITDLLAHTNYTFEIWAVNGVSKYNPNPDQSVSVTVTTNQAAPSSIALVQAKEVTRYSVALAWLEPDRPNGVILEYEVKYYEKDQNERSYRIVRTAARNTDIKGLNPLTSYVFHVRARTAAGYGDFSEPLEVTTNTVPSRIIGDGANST
row,IC50 [nM],Molecule
1,3.3,B1
2,2.5,B2
3,2.4,B3
4,3.7,B4
5,2.3,B5
6,2.9,B6
7,2.4,B7
8,2,B8
9,3.7,B9
10,3,B10
11,2,B11
12,5.3,B12
13,2.6,B13

# Molecular target: T2, human EphA4 (Homo sapiens, UniProt P54764)
# T2 construct: made in house; not restated for the human SEAP-His protein
# Experiment: Affinity of humanized antibodies by SPR (Biacore T200)
# Format: binding
# Details: human EphA4 extracellular region-SEAP-His; 1:1 binding model
# Method: The binding affinity of each anti-EphA4 monoclonal humanized antibody obtained in Example 16 for human EphA4 was determined by surface plasmon resonance (SPR) using Biacore T200 (GE Healthcare). First, for the assay of antibody A, a rat anti-mouse IgG1 antibody produced with a conventional method by immunizing rat with mouse IgG1 antibody was immobilized on sensor chip CM5. The immobilization of the rat anti-mouse IgG1 antibody on sensor chip CM5 was performed by the amine coupling method using N-hydroxysuccinimide (NHS) and N-ethyl-N′-(3-dimethylaminopropyl)carbodiimide hydrochloride (EDC). Ethanolamine was used in blocking (the sensor chip and the reagents for immobilization were all manufactured by GE Healthcare). The antibody was diluted with a buffer solution for immobilization (10 mM sodium acetate, pH 4.5) and immobilized on the sensor chip according to the protocol attached to Biacore T200. For the assay of each humanized monoclonal antibody, a protein A chip (GE Healthcare, 29-1383-03) was used. Antibody A or the humanized monoclonal antibody was diluted with a running buffer solution HBS-EP (GE Healthcare), injected onto only flow cell 2 for 120 seconds, and captured (captured amount: approximately 30 to 60 RU). Subsequently, human EphA4 extracellular region-SEAP-His protein serially diluted in the range of 50, 16.7, 5.6, 1.9, and 0.6 nM using HBS-EP was sequentially added from the lower toward higher concentration sides without regeneration operation. Binding reaction curves were sequentially observed at the time of the addition (association phase, for 120 sec) and after the completion of the addition (dissociation phase, for 900 sec). After the completion of each observation, the sensor chip was regenerated by the addition of 3 M MgCl2 (for 60 sec) or 10 mM Glycine-HCl pH 1.5 (for 30 sec). The obtained binding reaction curves were subjected to fitting analysis with 1:1 binding models using software BIA evaluation attached to the system to calculate the affinity (KD=kd/ka) for human EphA4 (Table 6).
# T2 sequence (P54764 20-547): as above
ka,kd,Molecule
370000 M⁻¹ s⁻¹,0.00053 s⁻¹,B1
390000 M⁻¹ s⁻¹,0.00065 s⁻¹,B2
320000 M⁻¹ s⁻¹,0.00043 s⁻¹,B3
330000 M⁻¹ s⁻¹,0.00065 s⁻¹,B4
290000 M⁻¹ s⁻¹,0.0006 s⁻¹,B5
330000 M⁻¹ s⁻¹ and 290000 M⁻¹ s⁻¹,0.00043 s⁻¹ and 0.00039 s⁻¹,B6
330000 M⁻¹ s⁻¹,0.00064 s⁻¹,B7
400000 M⁻¹ s⁻¹,0.00082 s⁻¹,B8
340000 M⁻¹ s⁻¹,0.0005 s⁻¹,B9
390000 M⁻¹ s⁻¹,0.00062 s⁻¹,B10
320000 M⁻¹ s⁻¹,0.00053 s⁻¹,B11
350000 M⁻¹ s⁻¹,0.00051 s⁻¹,B12
350000 M⁻¹ s⁻¹,0.00068 s⁻¹,B13

# Same assay, conditions: human EphA4 extracellular region-SEAP-His; KD=kd/ka
row,Kd,Molecule
1,1.4 nM,B1
2,2.2 nM,B2
3,1.4 nM,B3
4,2 nM,B4
5,2.1 nM,B5
6,1.3 nM and 1.4 nM,B6
7,1.9 nM,B7
8,2 nM,B8
9,1.5 nM,B9
10,1.6 nM,B10
11,1.7 nM,B11
12,1.5 nM,B12
13,2 nM,B13
